# The nanobody polyreactivity screen of Harvey et al. (2022)
# Test: yeast display, Sf9 membrane polyspecificity reagent, FACS + sequencing; frameworks hold sequencing errors
# Procedure, shortened: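 In a synthetic yeast display library (Saccharomyces cerevisiae BJ5465), nanobody expression was induced with galactose for 36–48 hours. FACS gates were set low and high (top ~1%) using anti-HA fluorescence for expression and streptavidin fluorescence for binding of the Sf9 membrane reagent. Each polyreactivity label is drawn from the gate of origin.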
row,Sequence,polyreactivity (PSR sort gate)
1,QVQLVESGGGLVQAGGSLRLSCAASGFIFSYYAMGWYRQAPGKERELVAAITVTGGNTYYADSVKGRFTISRDNAKNTVYLQMNSLKPEDTAVYYCAAVVRGPGVSVYYWGQGTQVSVSS,low polyreactivity
2,QVQLVESGGGLVQAGGSLRLSCAASGFIFSYYAMGWYRQAPVKERELVAAISSSGGTTYADSVKGRFTISRDNAKNTFYLQMNSLKPEDTAVYYCARVQYWFYKPMYYWGQGTQVTVSS,high polyreactivity
3,QVQLVESGGGLVQAGGSLRLSCAASGFIFSYYTMGWYRQAPGKEWEVVAAIRSSGGSTYADSVKGRFTISRDNAKNTVYLQKNSLKPEDTAVYYCAAVQTWRWVYARDYWGQGTQVTVSS,high polyreactivity
4,QVQLVESGGGLVQAGGSLRLSCAASGFIFSYYVMGWYRQAPGKERELVAGISWNGGRTYYADSVKGRFTISRDNAKNTVYFQMNSLKPEDTAVYYCAKDPYSKRRASSGYDYWGQGTQVTVSS,low polyreactivity
5,QVQLVESGGGLVQAGGSLRLSCAASGFIFSYYVMGWYRQAPGKERELVASISARVGSTYYADSVKGRFTISRDNAKNTVYLQMNSLKPEDTAVYYCNTARVKYRWYNYWGQGTQVTVSS,high polyreactivity
6,QVQLVESGGGLVQAGGSLRLSCAASGFIFTDNAMGWYRQAPGKDREFVAAITYSGGSTYYADSVKGRFTISRDNAKNTVYFQMNSLKPVDTAVYYCNKDVFPAPGGVTAYEYEYWGQGTQVTVSS,low polyreactivity
7,QVQLVESGGGLVQAGGSLRLSCAASGFIFTDYAMGWYRQAPGKEREFVAAIDWSGGNTYYADSVKGRFTISRDNAKNTVYLLMNSLKPEDTAVYYCADSGSAREYDYWGQGTQVTVSS,low polyreactivity
8,QVQLVESGGGLVQAGGSLRLSCAASGFIFTGNAMGWYRQAPGKERELVAAITQSGGHTSYADSVKGRFTISRDNAKNTVYLQMNSLKPEDTAVYYCNAEYTWPYHGVRNGWFNFKYEYWGQGTQVTVSS,low polyreactivity
9,QVQLVESGGGLVQAGGSLRLSCAASGFIFTGYAMGWYRPAPRKERELVAAITKSGGSTYYADSVKGRFTISRDNAKNTVYLQMNSLKPEDTAVYYFNTYVWRWSKGGYWGHGTQVTVSS,high polyreactivity
10,QVQLVESGGGLVQAGGSLRLSCAASGFIFTGYAMGWYRQAPGKERELVAAISRRGGSTYYADSVKGRFTISRDNAKNTVYLQMNSLKPEDTAVYYCAARTRTNGFDDWGQGTQVTVSS,high polyreactivity
11,QVQLVESGGGLVQAGGSLRLSCAASGFIFTKYTKGWYRPAPGTERELVAAIRSDGVRTYYADSVKGRFTISRDNAKNTVYLQMNSLKPEDTAVYYCAAYKAVPHYYYWGQGTQVTVSS,high polyreactivity
12,QVQLVESGGGLVQAGGSLRLSCAASGFIFTKYTMGWYRQAAGKVRELVAAIDSGGNTYADSVKGRFTISRDNAKNTVYLHMNSLKPEDTAVYYCAVDGGEFSSYGYWGQGTQVTVSS,low polyreactivity
13,QVQLVESGGGLVQAGGSLRLSCAASGFIFTKYTMGWYRQAPGKERELVAAITGRGTSTYADSVKGRFTISRDNAKNTVYLQMNSLKPEDTAVYYCAAVGWFADFLFSDINGYYWGQGTQVTVSS,low polyreactivity
14,QVQLVESGGGLVQAGGSLRLSCAASGFIFTLYTMGWYRPAPGKERELVAAISGRGGYTYYADSVKGRFTISRDNAKNTVYLHMNSLKPEDTAVYYCARAAYGFRARSGGDYWGQGTQVTVSS,high polyreactivity
15,QVQLVESGGGLVQAGGSLRLSCAASGFIFTNYAIGWYRQAPGKVRELVATISSGGGSTYYADSVKGRFTISRDNAKNTVYLQMNSLKQEDTAVYYCAASRRITGIRYINRYEYWGQGTQVTVSS,high polyreactivity
16,QVQLVESGGGLVQAGGSLRLSCAASGFIFTNYAMGWYRQAPGKERELVAAITRRGGGTYYADSVKGRFTISRDNAKNTVYLQMNSLKPEDTAVYYCAKYSRLVTANDYDYWGQGTQVTVSS,high polyreactivity
17,QVQLVESGGGLVQAGGSLRLSCAASGFIFTPYTMGWYRQAPGKERELVAAITDGSSTYYADSVKGRFTISRDNAKNTVYLQMNSLKPEDTAVYYCNADGKPPYISWLYDYWGQGTQVTVSS,low polyreactivity
18,QVQLVESGGGLVQAGGSLRLSCAASGFIFTRYAMGWYRQAPGKERELVARISGGGGSTYYADSVKGRFTISRDNAKNTVYLQMNSLKPEDTAVYYCNARWYPYISRYGIEARYDYWGQGTQVTVSS,high polyreactivity
19,QVQLVESGGGLVQAGGSLRLSCAASGFIFTTYAMGWYRQAPGKERELVAAISSSGTTYYADSVKGRFTISRDNAKNTVYLQMNSLKPEDTAVYYCAARRQFRSYQQRLYYWGQGTQVTVSS,low polyreactivity
20,QVQLVESGGGLVQAGGSLRLSCAASGFIFTTYAMGWYRQAPGKERELVAAISYRTGRTFYADSVKGRFTISRDNAKNTVYLQMNSLKPEDTAVYYCAAGTIQTVTTYWWTYRIGLGYWGQGTKVTVSS,high polyreactivity
21,QVQLVESGGGLVQAGGSLRLSCAASGFIFTTYAMGWYRQEPGTERELVAAISGRGGTTYYADSVKGRFTISRDNAKNTVYLQMNSMKPEDTAVYYCAADGYPGDDYWGQGTQVTVSS,high polyreactivity
22,QVQLVESGGGLVQAGGSLRLSCAASGFIFTVYALGWYRQAPVKERELVATITGTGDTNYADSVKGRFTISRDNAKNTVYLQMNSLKPEDTAVYYCAVSPRVPFRKPVLTPYNMYYWGQGTQVTVSS,high polyreactivity

row,Sequence,polyreactivity (PSR sort gate)
1,QVQLVESGGGLVQAGGSLRLSCAASGFIFTYYALGWYRQAPGKERELVAAITIGGTTNYADSVKGRFTISRDNAKNTVYLQMNSLKPEDTAVYYCAAYFTIEDWYYNEAVRYYYWGQGTKVTVSS,high polyreactivity
2,QVQLVESGGGLVQAGGSLRLSCAASGFIFVDNAMGWYRQAPRQERELVASITRGGSTDYADSVKGRFTISRDNAKNTVYLQRNSLKPEDTAVYYCAASWHRPAPDEGMDYWGQGTQVTVSS,low polyreactivity
3,QVQLVESGGGLVQAGGSLRLSCAASGFIFVDYVMGWDIQAPGKERELVAAISERGTGTYYADSVKRRFTISRDKAKNTVYLQMNSLKPEDTAVYYCATLGTGWWNCAYYYWGQGTQVTVSS,low polyreactivity
4,QVQLVESGGGLVQAGGSLRLSCAASGFIFVEYAMGWYRQAPGKERELVAAISGRDGSTYYADSVKGRFTISRDNAKNTVYLQMNSLKPEDTAVYYCAADRIHSVTRYDYDYWGQGTQVTVSS,low polyreactivity
5,QVQLVESGGGLVQAGGSLRLSCAASGFIFVGNDMGWYRQAPGKERELVAAISSGGSTYYADSVKGRFTISRDNAKNTVYLQMNSLKPEDTAVYYCAATYVYYLYGYWGQGTQVTVSS,low polyreactivity
6,QVQLVESGGGLVQAGGSLRLSCAASGFIFVGNDMGWYRQAPGKERELVAAISSGGTTIYADSVKGRFTISRDNAKNTVYLQMNSLKPEDTAVYFCAADYDYRQGYDSVHLDYWGQGTQVTVSS,low polyreactivity
7,QVQLVESGGGLVQAGGSLRLSCAASGFIFVGNVMGWYRQAPGKERELVARISTSGGSTYYADSVKGRFTISRDNAKNTVYLQMNSLKPEDTAVYYCAARRRTGREYGYWGQGTQVTVSS,high polyreactivity
8,QVQLVESGGGLVQAGGSLRLSCAASGFIFVIYAMGWSRQAPGKERELVAAIRWRGGGTYYADSVKGRFTISRDNAKNTVYLQMYSLKPEDTAVYYCNADGWTYREEYWWRMDYWGQGTQVTVSS,low polyreactivity
9,QVQLVESGGGLVQAGGSLRLSCAASGFIFVKYAMGWNRQAPGKERELVAAITNGCSTYYADSVKGRFTISRDNAKNTVYLQMNSLKPEDTAVYYCAAGHPEYDFWGQGTQVTVSS,low polyreactivity
10,QVQLVESGGGLVQAGGSLRLSCAASGFIFVKYVMGWYRQAPGKERELVATITNGVSTNYADSVKGRFTISRDNAKNTVYLQMNSLKPEDTAVYYCNTGSNAWYFSGDYWGQGTQVTVSS,low polyreactivity
11,QVQLVESGGGLVQAGGSLRLSCAASGFIFVNYAMGWYRQAPGKERELVAAITRRGGRTYYADSVKGRFTISRDNAKNTVFLQINRLKPEDTAVYYCATENQSRTPEEDSWGQGTQVTVSS,high polyreactivity
12,QVQLVESGGGLVQAGGSLRLSCAASGFIFVRNAMVWYRQAPGIERELVAAIRWSGGSTYYADSVKGRFTISRDNAKNTVYLQMNSLKPEDTAVYYCAKEPPPVKGDYWGQGTQVTVSS,low polyreactivity
13,QVQLVESGGGLVQAGGSLRLSCAASGFIFVRNTRGWYRQAPGKERELVATITRRGGSTSYADSVKGRFTISRDNAKNTVYLQMNSLKPEDTAVYYCNARSVYGSKQEEYWGQGTQVTVSS,high polyreactivity
14,QVQLVESGGGLVQAGGSLRLSCAASGFIFVRYALGWYSQAPGKEMELVAAIRRGGGDSSYYADSVKGRFTISRDNAKNTVYLQMNSLKPEDTAVYYCAARPAIERDYWGQGTQVTVSS,high polyreactivity
15,QVQLVESGGGLVQAGGSLRLSCAASGFIFVRYAMGWYRQAPGKERELVAAISSSGGTTNYADSVKGRFTISRDNAKNTVYLQMNSLKPEDTAVYYCAAYVYQTPHSLHIYDYWGQGTQVTVSS,low polyreactivity
16,QVQLVESGGGLVQAGGSLRLSCAASGFIFVRYAMGWYRQAPGKQRELVASITRSGGSTYYADSVKGRFTISRDNAKNTVYLQMNSLKPEDTAVYYCAASYFRSRGSTYGYWGQGTQVTVSS,high polyreactivity
17,QVQLVESGGGLVQAGGSLRLSCAASGFIFVVYTMGWYRQAPGKERELVAAITSGGSTYYADSVKGRFTISRDNAKNTVYLQMNSLKPEDTAVYYCYALASRYPAYYYWGQGTQVTVSS,low polyreactivity
18,QVQLVESGGGLVQAGGSLRLSCAASGFIFVYNAMGWYRQAPGKERELVAAIDYGGGSTTYADSVKGRFTISRDNAKNTVYLQMNSLKPEDTAVYYCAAYYRYLDDIYEYEYWGQGTQVTVSS,low polyreactivity
19,QVQLVESGGGLVQAGGSLRLSCAASGFIFWDKAMGWYRQAPGKEWELVAAISKSGTRTYYADSVKGRFTISRDTAKKTVDLQMNSLKPEETAVYYCAAEGSGYDYYYWGQGTQVTVSS,high polyreactivity
20,QVQLVESGGGLVQAGGSLRLSCAASGFIFWDYAMGWYRQAPGKERELVAAISDSGGDTYYADSVKGRFTISRDNAKNTVYFQMNSLKPEDTAVYYCAADVELWVFRGQQYDYWGQGTQVTVSS,low polyreactivity
21,QVQLVESGGGLVQAGGSLRLSCAASGFIFWGNAMGWYRQAPGKERELLAAINYSGGRTYYADSVKGRFTISRDNAKNTVYLQMNSLKPEDSAAYYCAAKYRYHVSGYDYWGQATQVTVSS,high polyreactivity
